US20150004190A1

B1: 2F5 IgA2 (antibody, V domains shown)
VH: RITLKESGPPLVKPTQTLTLTCSFSGFSLSDFGVGVGWIRQPPGKALEWLAIIYSDDDKRYSPSLNTRLTITKDTSKNQVVLVMTRVSPVDTATYFCAHRRGPTTLFGVPIARGPVNAMDVWGQGITVTI
VL: ALQLTQSPSSLSASVGDRITITCRASQGVTSALAWYRQKPGSPPQLLIYDASSLESGVPSRFSGSGSGTEFTLTISTLRPEDFATYYCQQLHFYPHTFGGGTRVDVR
B2: 2F5 IgG1 (antibody, V domains shown)
VH: B1 VH
VL: B1 VL

Assays:
Peptide ELDKWA (HIV-1) [1] = assay: ELISA on coated peptide
Peptide ELDKWA (HIV-1) [2] = assay: ELISA on coated peptide (FIG. 1)
Peptide ELDKWA (HIV-1) [3] = assay: competitive ELISA, competitor 0.027 nM 2F5 IgA2 detected with anti-human IgA

Row | Binder | fold higher efficacy as compared to IgG1 (Peptide ELDKWA (HIV-1) [1]) [fold] | antibody concentration of equivalent binding activity (Peptide ELDKWA (HIV-1) [2]) [nM] | concentration needed to compete (Peptide ELDKWA (HIV-1) [3]) [nM]
1 | B1 | > 100 | 0.05 | 
2 | B2 |  | 6.25 | 25
